Consider one protein from paper PMC2810717.

Substrate in the data set: CC(=O)NCCCNCCCCNCCCN
In words: purified protein. The following applies: FAD; pH 8.3; 25.0 °C. The class given is biochemical, Homo sapiens.

B1: spermine oxidase (SMO) (Homo sapiens) (protein)
chain: MQSCESSGDSADDPLSRGLRRRGQPRVVVIGAGLAGLAAAKALLEQGFTDVTVLEASSHIGGRVQSVKLGHATFELGATWIHGSHGNPIYHLAEANGLLEETTDGERSVGRISLYSKNGVACYLTNHGRRIPKDVVEEFSDLYNEVYNLTQEFFRHDKPVNAESQNSVGVFTREEVRNRIRNDPDDPEATKRLKLAMIQQYLKVESCESSSHSMDEVSLSAFGEWTEIPGAHHIIPSGFMRVVELLAEGIPAHVIQLGKPVRCIHWDQASARPRGPEIEPRGEGDHNHDTGEGGQGGEEPRGGRWDEDEQWSVVVECEDCELIPADHVIVTVSLGVLKRQYTSFFRPGLPTEKVAAIHRLGIGTTDKIFLEFEEPFWGPECNSLQFVWEDEAESHTLTYPPELWYRKICGFDVLYPPERYGHVLSGWICGEEALVMEKCDDEAVAEICTEMLRQFTGNPNIPKPRRILRSAWGSNPYFRGSYSYTQVGSSGADVEKLAKPLPYTESSKTAPMQVLFSGEATHRKYYSTTHGALLSGQREAARLIEMYRDLFQQGT
Regarding B1, the Km is on record as 492 ± 97 µM.
